Measured values taken from patent US20250195647A1 (CORBUS PHARMACEUTICALS, published 2025).
Values belong to the binder of their own block, whether it stands above or below them.

Key:
integrin αVβ8 (human) = biological target: T1, integrin αVβ8 (human) (human, UniProt P06756 31-992; P26012 43-684); assay: SPR, mAb captured on anti-Fc CM5 chip, integrin injected, 37 C, 1:1 fit
T1 construct: Integrin heterodimer injected as analyte in SPR; also called avb8
Procedure: (§1) Antibodies were assessed by surface plasmon resonance (SPR) for the ability to bind to integrin heterodimers. mAbs were immobilized on an anti-Fc CM5 sensor chip, and integrins (0.39-50 nM for and 200 nM for others) were injected at a flow rate of […] for a contact time of 180 s and dissociation time of 400 s, at 37° C. Data were fit (grey lines) to a 1:1 antibody:ligand binding model to determine Kd.

integrin αVβ8 (murine) = biological target: T2, integrin αVβ8 (murine) (murine, UniProt P43406 31-988; Q0VBD0 43-681); assay: as above
T2 construct: Integrin heterodimer injected as analyte in SPR; also called mαVβ8
Procedure: as §1

[1] = biological target: T3, αvβ8 expressed on the surface of LN229 cells (UniProt P06756 31-1048; P26012 43-769); assay: cell-based competition (adhesion) assay: LN229 cells expressing αvβ8 on plate-immobilized L-TGFβ, Crystal Violet readout
T3 construct: whole, on cells; also called avb8 on LN229 cells
Procedure: (§2) Exemplary antibodies of the disclosure were evaluated for their ability to block binding of the latent form of TGFβ (L-TGFβ) to in a cell-based competition assay. TGFβ is ubiquitously expressed in the latent form and L-TGFβ promotes an immune suppressive phenotype within the tumor microenvironment. L-TGFβ was immobilized on a polystyrene plate and incubated with LN229 cells expressing and increasing concentrations of muAb1 for 30 mins at 37° C. Bound LN229 cells were quantified by Crystal Violet. Data were fit to a 4-parameter displacement curve to determine IC₅₀. […] The affinities of the two antibodies are similar as measured in this assay.

[2] = biological target: T3, αvβ8 expressed on the surface of LN229 …; assay: cell-based competition (adhesion) assay: LN229 cells expressing αvβ8 on plate-immobilized L-TGFβ with increasing antibody, bound cells quantified by Crystal Violet, 4-parameter fit
Procedure: as §2

T3 sequence (P06756 31-1048, chain 1 of 2): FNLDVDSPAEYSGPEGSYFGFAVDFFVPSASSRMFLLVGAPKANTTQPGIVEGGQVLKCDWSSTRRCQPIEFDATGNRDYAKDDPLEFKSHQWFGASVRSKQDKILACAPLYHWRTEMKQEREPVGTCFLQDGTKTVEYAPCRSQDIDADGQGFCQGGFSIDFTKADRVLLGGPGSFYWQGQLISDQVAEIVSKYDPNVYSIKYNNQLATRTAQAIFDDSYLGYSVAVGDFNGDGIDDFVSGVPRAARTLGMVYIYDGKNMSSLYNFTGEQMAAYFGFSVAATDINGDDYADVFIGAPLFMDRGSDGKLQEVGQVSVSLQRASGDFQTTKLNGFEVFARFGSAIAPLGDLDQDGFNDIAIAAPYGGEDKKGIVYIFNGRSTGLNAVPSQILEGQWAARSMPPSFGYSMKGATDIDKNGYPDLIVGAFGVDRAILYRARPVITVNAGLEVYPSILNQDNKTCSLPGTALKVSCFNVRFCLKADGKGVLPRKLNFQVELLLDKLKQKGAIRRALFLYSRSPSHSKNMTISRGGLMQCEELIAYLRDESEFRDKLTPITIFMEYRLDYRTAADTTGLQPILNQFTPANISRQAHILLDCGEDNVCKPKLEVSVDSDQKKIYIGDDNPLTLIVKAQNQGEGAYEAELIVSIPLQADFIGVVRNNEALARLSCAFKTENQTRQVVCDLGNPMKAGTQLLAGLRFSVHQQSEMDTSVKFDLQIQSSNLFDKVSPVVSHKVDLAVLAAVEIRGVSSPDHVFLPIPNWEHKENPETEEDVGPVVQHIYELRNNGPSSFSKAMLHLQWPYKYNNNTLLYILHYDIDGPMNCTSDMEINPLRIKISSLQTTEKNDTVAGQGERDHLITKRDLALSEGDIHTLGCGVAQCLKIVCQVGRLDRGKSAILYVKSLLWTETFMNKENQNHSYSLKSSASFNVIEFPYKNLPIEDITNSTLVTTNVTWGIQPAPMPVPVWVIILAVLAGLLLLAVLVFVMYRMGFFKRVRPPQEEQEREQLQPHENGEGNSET
T3 sequence (P26012 43-769, chain 2 of 2): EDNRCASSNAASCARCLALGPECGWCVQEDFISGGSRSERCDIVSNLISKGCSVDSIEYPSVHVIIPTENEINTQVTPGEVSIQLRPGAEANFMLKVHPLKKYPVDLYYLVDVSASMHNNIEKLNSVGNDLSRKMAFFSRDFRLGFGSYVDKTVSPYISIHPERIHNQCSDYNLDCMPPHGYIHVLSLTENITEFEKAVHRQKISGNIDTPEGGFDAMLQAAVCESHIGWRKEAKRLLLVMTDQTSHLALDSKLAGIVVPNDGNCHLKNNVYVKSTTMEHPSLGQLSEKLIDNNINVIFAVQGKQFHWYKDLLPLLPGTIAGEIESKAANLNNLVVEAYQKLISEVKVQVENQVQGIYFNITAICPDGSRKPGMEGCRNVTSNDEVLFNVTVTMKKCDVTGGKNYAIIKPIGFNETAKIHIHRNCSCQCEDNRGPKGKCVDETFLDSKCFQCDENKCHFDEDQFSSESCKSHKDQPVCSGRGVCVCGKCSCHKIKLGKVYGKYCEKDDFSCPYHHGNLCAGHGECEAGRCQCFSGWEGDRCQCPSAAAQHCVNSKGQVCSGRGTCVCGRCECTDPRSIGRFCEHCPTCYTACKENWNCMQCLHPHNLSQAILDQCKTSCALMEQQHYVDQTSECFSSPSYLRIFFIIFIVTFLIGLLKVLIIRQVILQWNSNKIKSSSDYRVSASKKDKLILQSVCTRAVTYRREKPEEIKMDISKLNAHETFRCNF
T1 sequence (P06756 31-992, chain 1 of 2): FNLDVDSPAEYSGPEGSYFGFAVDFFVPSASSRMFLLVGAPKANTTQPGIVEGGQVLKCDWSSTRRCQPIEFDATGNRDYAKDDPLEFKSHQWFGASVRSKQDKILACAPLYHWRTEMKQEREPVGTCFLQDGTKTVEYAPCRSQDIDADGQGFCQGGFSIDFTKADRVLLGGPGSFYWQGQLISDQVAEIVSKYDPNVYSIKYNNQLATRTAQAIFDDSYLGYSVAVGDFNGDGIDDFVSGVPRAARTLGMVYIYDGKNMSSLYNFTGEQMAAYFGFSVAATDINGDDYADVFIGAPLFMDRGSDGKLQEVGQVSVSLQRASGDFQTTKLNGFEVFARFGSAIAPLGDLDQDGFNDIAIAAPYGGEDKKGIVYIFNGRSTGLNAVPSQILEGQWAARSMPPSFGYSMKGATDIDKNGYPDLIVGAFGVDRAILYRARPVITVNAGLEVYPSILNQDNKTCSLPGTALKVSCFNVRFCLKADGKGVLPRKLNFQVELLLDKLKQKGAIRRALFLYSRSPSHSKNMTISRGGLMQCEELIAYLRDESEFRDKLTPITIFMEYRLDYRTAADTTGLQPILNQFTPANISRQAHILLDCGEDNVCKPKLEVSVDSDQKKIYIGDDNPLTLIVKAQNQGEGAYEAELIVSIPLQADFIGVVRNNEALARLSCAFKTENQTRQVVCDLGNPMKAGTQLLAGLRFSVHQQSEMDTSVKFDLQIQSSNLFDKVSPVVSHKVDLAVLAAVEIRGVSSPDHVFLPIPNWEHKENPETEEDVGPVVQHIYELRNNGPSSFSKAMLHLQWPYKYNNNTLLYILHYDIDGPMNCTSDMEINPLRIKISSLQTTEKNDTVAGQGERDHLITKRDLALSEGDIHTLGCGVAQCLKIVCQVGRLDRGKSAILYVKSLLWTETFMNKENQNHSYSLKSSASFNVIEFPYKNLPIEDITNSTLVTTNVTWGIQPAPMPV
T1 sequence (P26012 43-684, chain 2 of 2): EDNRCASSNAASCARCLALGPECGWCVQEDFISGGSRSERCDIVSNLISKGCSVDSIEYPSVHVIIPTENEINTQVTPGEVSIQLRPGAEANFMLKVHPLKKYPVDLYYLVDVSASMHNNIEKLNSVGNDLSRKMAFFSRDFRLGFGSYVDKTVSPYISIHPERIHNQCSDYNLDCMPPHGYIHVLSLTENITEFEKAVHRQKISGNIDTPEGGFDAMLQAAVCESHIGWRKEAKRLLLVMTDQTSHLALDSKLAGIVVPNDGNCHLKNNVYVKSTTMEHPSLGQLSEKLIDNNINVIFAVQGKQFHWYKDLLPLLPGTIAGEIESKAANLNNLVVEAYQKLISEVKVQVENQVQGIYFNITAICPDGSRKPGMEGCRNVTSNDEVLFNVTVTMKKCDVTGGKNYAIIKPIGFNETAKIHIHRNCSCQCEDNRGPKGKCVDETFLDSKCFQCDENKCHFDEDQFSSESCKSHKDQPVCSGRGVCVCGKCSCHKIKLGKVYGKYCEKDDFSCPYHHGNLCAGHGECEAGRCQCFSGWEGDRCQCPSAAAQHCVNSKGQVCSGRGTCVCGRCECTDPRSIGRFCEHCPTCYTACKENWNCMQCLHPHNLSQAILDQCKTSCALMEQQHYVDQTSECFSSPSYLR
T2 sequence (P43406 31-988, chain 1 of 2): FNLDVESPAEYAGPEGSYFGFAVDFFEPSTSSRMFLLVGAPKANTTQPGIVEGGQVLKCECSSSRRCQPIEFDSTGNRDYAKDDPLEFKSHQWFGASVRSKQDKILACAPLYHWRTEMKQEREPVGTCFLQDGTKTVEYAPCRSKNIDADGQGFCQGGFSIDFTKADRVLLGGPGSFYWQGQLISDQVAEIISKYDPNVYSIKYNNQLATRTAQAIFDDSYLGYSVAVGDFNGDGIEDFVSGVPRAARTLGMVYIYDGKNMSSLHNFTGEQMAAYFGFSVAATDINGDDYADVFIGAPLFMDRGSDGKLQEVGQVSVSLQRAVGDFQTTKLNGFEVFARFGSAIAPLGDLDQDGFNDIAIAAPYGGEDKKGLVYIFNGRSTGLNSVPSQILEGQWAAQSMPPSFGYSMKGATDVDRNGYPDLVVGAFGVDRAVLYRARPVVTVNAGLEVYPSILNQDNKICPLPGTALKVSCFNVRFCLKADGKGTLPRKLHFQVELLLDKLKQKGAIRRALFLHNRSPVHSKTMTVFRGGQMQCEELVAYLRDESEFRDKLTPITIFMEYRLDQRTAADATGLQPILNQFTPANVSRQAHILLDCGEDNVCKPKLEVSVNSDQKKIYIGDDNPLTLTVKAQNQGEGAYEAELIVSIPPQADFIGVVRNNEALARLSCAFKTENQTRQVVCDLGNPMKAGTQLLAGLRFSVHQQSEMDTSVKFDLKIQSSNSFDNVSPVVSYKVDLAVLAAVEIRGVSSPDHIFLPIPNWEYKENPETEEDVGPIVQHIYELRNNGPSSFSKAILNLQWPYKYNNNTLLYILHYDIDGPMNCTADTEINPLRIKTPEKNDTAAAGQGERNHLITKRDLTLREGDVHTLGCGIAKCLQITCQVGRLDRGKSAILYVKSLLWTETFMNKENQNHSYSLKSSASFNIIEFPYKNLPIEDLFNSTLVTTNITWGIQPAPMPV
T2 sequence (Q0VBD0 43-681, chain 2 of 2): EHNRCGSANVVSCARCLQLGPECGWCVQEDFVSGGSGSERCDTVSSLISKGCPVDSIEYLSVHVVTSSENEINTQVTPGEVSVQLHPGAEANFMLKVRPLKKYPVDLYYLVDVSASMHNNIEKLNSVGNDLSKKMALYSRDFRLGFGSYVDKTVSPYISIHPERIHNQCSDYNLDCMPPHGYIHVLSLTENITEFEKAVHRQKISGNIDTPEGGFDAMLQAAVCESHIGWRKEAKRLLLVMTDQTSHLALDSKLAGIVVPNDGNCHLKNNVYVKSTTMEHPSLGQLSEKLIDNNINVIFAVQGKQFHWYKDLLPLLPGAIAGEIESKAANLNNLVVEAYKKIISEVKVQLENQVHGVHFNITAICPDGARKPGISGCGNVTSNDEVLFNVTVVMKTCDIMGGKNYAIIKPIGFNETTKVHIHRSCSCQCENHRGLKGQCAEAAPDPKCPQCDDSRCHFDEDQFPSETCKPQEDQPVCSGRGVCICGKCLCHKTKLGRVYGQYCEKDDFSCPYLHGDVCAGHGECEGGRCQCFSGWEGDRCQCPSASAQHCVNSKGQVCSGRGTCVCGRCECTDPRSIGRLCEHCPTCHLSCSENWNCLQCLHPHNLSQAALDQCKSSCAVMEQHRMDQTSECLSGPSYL

Kd (integrin αVβ8 (human)): < 5 nM | Kd (integrin αVβ8 (murine)): < 5 nM | IC50 (read off the curve) [1]: ~4 nM | IC50 [2]: < 5 nM
B1: huAb1 (antibody, V domains shown)
VH: QIQLVQSGSELKKPGASVKVSCKASGYTFTKYSMHWVRQAPGQGLEWMARINTETGNPTYADGFRGRFVVSLDTSVSTAYLQISSLKAEDTAVYYCAIFYYGRDTWGQGTTVTVSS
VL: DIVMTQSPDSLAVSLGERATINCKSSQSLLHSRSRKNYLAWYQQKPGQPPKLLIYWASTRESGVPDRFSGSGSGTDFTLTISSLQAEDVAVYYCKQSYNLLSFGQGTKLEIK
notes: also called anti-αvβ8 antibody

Kd (integrin αVβ8 (human)): < 15 nM | Kd (integrin αVβ8 (murine)): < 15 nM | IC50 (read off the curve) [1]: ~1 nM | IC50 [2]: < 5 nM
B2: muAb1 (antibody, V domains shown)
VH: B1 VH
VL: B1 VL
notes: also called murine-human hybrid monoclonal anti-αVβ8 antibody; murine compatible version of huAb1
